From paper PMC3585288, “Interactions of Archaeal Chromatin Proteins Alba1 and Alba2 with Nucleic Acids” (PLoS ONE, 2013)

T1: Alba2 (Ape10b2) (Aeropyrum pernix, UniProt Q9YAX2 1-102)
T1 sequence: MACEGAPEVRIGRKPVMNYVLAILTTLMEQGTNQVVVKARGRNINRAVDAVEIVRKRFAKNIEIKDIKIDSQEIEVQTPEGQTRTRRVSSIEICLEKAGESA

T2: Alba1 (Ape10b1) (Aeropyrum pernix, UniProt Q9YAW1 1-94)
T2 sequence: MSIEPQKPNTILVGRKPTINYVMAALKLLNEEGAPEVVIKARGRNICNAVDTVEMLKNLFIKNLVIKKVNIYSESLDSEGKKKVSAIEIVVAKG

T3: Alba1 (Ape10b1);Alba2 (Ape10b2) (Aeropyrum pernix;Aeropyrum pernix, UniProt Q9YAW1;Q9YAX2 1-94;1-102, |)
T3 sequence 1: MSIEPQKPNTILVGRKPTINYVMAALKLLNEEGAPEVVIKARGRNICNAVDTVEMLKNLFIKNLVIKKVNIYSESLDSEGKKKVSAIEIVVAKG
T3 sequence 2: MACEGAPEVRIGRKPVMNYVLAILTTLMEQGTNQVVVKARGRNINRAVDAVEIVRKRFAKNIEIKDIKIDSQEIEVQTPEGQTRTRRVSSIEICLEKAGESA


Experiments:
[1] = biological target: the molecule itself; test: native gel or EMSA; native protein PAGE, 20% acrylamide homogeneous gel, PhastSystem, acidic buffer agarose strips, proteins migrating towards the negative electrode; equinatoxin II (19.82 kDa) as size reference
Alba2 (Ape10b2) = biological target: T1, Alba2 (Ape10b2); test: SPR; 6.0 uM protein; slower association and dissociation; ITC: 50 mM NaH2PO4, pH 7.0, 25 C; SPR: 50 mM NaH2PO4, 150 mM NaCl, 0.005% P20, pH 7.0, 25 C; UV melting: 50 mM NaH2PO4, pH 7.0; EMSA: 0.8% agarose, 1 h at room; details: protein: recombinant; tags: His-tag (pETDuet-1); chain copies: 2; label: 5'-biotin on one strand (S1); blunt
Alba1 (Ape10b1) = biological target: T2, Alba1 (Ape10b1); test: SPR; 6.0 uM protein; saturable, fast association; ITC: 50 mM NaH2PO4, pH 7.0, 25 C; SPR: 50 mM NaH2PO4, 150 mM NaCl, 0.005% P20, pH 7.0, 25 C; UV melting: 50 mM NaH2PO4, pH 7.0; EMSA: 0.8% agarose, 1 h at room; details: protein: recombinant; tags: His-tag (pQE-30UA); chain copies: 2; label: 5'-biotin on one strand (S1); blunt
[2] = biological target: T3, Alba1 (Ape10b1);Alba2 (Ape10b2); test: SPR; 6.0 uM equimolar complex; biphasic; ITC: 50 mM NaH2PO4, pH 7.0, 25 C; SPR: 50 mM NaH2PO4, 150 mM NaCl, 0.005% P20, pH 7.0, 25 C; UV melting: 50 mM NaH2PO4, pH 7.0; EMSA: 0.8% agarose, 1 h at room; details: protein: recombinant;recombinant; tags: His-tag (pQE-30UA); copies: 1;1; label: 5'-biotin on one strand (S1); blunt

Binder	stoichiometry N [1]	binding result (Alba2 (Ape10b2))	binding result (Alba1 (Ape10b1))	binding result [2]
Alba2 protein from Aeropyrum pernix (APE1823) (natural protein, Alba2 (Ape10b2), Aeropyrum pernix, locus APE1823; 102 amino-acid residues (11,380 Da); His-tag is removable by thrombin; Co-expression with untagged Alba1 may leave Alba1 in the Alba2 preparation (my surmise); also called Ape10b2; APA2) MACEGAPEVRIGRKPVMNYVLAILTTLMEQGTNQVVVKARGRNINRAVDAVEIVRKRFAKNIEIKDIKIDSQEIEVQTPEGQTRTRRVSSIEICLEKAGESA	2	–	–	–
SPRspecAP (dsDNA) DNA 1: CCCCCCCGTGAAAGCCTAGACAGCGAGGCCCCCCC DNA 2: GGGGGGGCCTCGCTGTCTAGGCTTTCACGGGGGGG	–	binds	binds	binds
Alba1 protein from Aeropyrum pernix (APE1832.1) (natural protein, UniProt Q9YAW1 1-94, looked up, Alba1 (Ape10b1), Aeropyrum pernix, locus APE1832.1; 94 amino-acid residues (10,336 Da); His-tag is removable by thrombin; also called Ape10b1; APA1) MSIEPQKPNTILVGRKPTINYVMAALKLLNEEGAPEVVIKARGRNICNAVDTVEMLKNLFIKNLVIKKVNIYSESLDSEGKKKVSAIEIVVAKG	2	–	–	–
